Laboratory results published in article PMC7969954, “Pol α-primase dependent nuclear localization of the mammalian CST complex” (Communications Biology, 2021).

Molecular target: T1, STN1-TEN1 complex (human, UniProt Q9H668 1-368; Q86WV5 1-123)
T1 construct: STN1, human, full length (flSTN1); TEN1, human, full length (flTEN1); source: E. coli ScarabXpress T7 lac, co-lysed, purified as a complex (Ni-NTA, amylose, HS and HQ)
T1 sequence (looked up) 1: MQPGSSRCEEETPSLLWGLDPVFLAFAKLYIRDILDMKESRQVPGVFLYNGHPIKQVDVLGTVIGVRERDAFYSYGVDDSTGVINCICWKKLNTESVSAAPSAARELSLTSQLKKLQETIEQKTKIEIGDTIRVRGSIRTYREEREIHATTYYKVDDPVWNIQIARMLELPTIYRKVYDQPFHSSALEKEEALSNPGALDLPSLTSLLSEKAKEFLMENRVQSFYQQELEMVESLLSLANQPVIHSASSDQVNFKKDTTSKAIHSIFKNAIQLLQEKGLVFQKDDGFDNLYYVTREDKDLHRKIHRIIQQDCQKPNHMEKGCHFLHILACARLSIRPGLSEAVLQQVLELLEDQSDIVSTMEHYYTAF
T1 sequence (looked up) 2: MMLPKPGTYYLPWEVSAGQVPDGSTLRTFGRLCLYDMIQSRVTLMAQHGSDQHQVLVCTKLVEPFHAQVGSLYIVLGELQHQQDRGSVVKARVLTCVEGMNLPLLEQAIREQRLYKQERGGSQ
Assay: pull-down; purified STN1-TEN1 complex incubated with purified CTC1 (1002-end) at 4 °C; complex bound to an amylose column and analysed by SDS-PAGE
Details: both partners purified

- binding result: binds
B1: CTC1 (1002-end) (domain or fragment, human, UniProt Q2NKJ3 1002-1217, looked up)
chain: TISIPLPHIYLAELLQGGQSPFQATASCHIVSVFSLQLFWVCAYCTSICRQGKCTRLGSTCPTQTAISQAIIRLLVEDGTAEAVVTCRNHHVAAALGLCPREWASLLDFVQVPGRVVLQFAGPGAQLESSARVDEPMTMFLWTLCTSPSVLRPIVLSFELERKPSKIVPLEPPRLQRFQCGELPFLTHVNPRLRLSCLSIRESEYSSSLGILASSC
notes: CTC1, human, residues 1002-end; also called CTC1 residues 1002-end; source: E. coli ScarabXpress T7 lac, purified (Ni-NTA, HS and HQ)
